# Experimental data as given in the supplement of paper PMC10065799, “High-throughput profiling of sequence recognition by tyrosine kinases and SH2 domains using bacterial peptide display” (eLife, 2023).
# Target: Fyn (UniProt P06241)
# Experiment: phosphorylation enrichment, bacterial display (enrichment ratio); higher = better substrate or ligand; peptides without Tyr show the background
# 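For SH2 binding enrichment of the phosphorylated peptide, bacterial display in this document: peptide library displayed on the E. coli surface as eCPX fusions, selected cells deep-sequenced, score is each peptide's frequency after selection divided by its frequency in the input.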
# 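For phosphorylation enrichment, bacterial display in this document: 11-residue human phosphosite peptides and single-mutation variants displayed on the E. coli surface, counted by deep sequencing, each peptide's frequency after selection divided by its frequency in the unselected input library; frequency after pTyr selection over input frequency; kinase dosed for 20-30% of maximal phosphorylation in three min.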
# Sequence of Fyn (P06241 whole entry, looked up): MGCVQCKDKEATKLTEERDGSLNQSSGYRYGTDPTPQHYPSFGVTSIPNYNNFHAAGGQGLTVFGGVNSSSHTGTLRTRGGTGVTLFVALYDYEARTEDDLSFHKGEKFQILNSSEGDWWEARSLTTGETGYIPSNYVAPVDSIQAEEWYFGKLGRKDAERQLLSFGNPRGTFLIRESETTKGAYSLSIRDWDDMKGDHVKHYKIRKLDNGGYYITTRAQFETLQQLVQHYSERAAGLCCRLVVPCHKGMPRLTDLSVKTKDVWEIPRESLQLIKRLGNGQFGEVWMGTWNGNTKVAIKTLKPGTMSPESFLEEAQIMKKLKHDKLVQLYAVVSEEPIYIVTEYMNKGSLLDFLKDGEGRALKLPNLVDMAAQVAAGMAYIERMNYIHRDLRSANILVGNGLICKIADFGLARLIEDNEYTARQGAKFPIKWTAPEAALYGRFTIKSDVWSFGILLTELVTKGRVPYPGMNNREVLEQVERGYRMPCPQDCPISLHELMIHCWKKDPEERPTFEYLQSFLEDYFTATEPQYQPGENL
row,Sequence,phosphorylation enrichment
1,GGDAVYTNGTI [RFX2_Y82_A86T],1.17
2,PPKFFDTRKLL [CYBB_Y41_Y41D],0.518
3,TRVMEYISRLD [CLTCL1_Y1043],0.381
4,VTQEQYELYCE [CBL_Y368],0.684
5,PSAELYSYALP [PDGFRB_Y716_N718Y],6.1
6,TLKDVCDDGKY [RPS6KA3_Y483_Y483C],0.434
7,TVHCDYLNISH [TAF1L_Y1385_P1389S],0.451
8,EYKDAYKFAAD [BRDT_Y335],0.499
9,KKIMGYSIRTI [IDS_Y490_I485K],0.304
10,FADIAYSFRHG [PAH_Y166_N167S_YF],0.443
11,GRVLGYGAFGK [FLT4_Y853],0.446
12,GLNKGYRMVVN [HINT1_Y94],0.375
13,SDVCMYRKNIF [SYNE2_Y570_YF],0.371
14,AERKLYSGAQT [ZAP70_Y178],0.375
15,GENTMYAQVFN [LY9_Y603],2.5
16,QKDTFYGLRSL [IGSF10_Y126],0.498
17,SVSNNYIQTLG [CTNND1_Y174],0.432

row,Sequence,phosphorylation enrichment
1,QRVLLYVQRET [GRHL3_Y518_R520Q],0.673
2,EFLQKYKGFKI [SYNE1_Y6953_YF],0.376
3,PIAPVYAPSMV [ACAT1_Y331_A333P],9.96
4,NDLMEYAKQHG [ASS1_Y163],0.457
5,FMKEPYIQSRF [HIPK4_Y175_V171M_YF],0.332
6,IQSAKYDMAED [TTC21B_Y1213],0.59
7,KLSHLYQDHMQ [WNT5A_Y86_C83S],0.442
8,FPPDGYSRHFE [CTNND1_Y213_YF],0.435
9,AELVPYFMEHH [PTPN11_Y80_Q79P_YF],0.636
10,EYFDGYWGYSV [ITGA2B_Y265],6.24
11,FLNSSYINIST [IL23R_Y178_T175N_YF],0.438
12,WIPIQYPIISE [NOG_Y222],0.427
13,FDKPVYQKTTE [LDLR_Y828_N825K],0.472
14,TRSFDYTEGGD [FGF7_Y58_M59T_YF],0.513
15,SASRSYSRSRS [SRRM4_Y549],0.518
16,LGNFNYEQRGA [API5_Y497],0.435

# Target: SHP2-C SH2
# Experiment: SH2 binding enrichment of the phosphorylated peptide, bacterial display (enrichment ratio); higher = better substrate or ligand; peptides without Tyr show the background
row,Sequence,SH2 binding enrichment
1,GGDAVYTNGTI [RFX2_Y82_A86T],0.597
2,PPKFFDTRKLL [CYBB_Y41_Y41D],1.17
3,TRVMEYISRLD [CLTCL1_Y1043],0.931
4,VTQEQYELYCE [CBL_Y368],0.577
5,PSAELYSYALP [PDGFRB_Y716_N718Y],0.641
6,TLKDVCDDGKY [RPS6KA3_Y483_Y483C],0.851
7,TVHCDYLNISH [TAF1L_Y1385_P1389S],0.58
8,EYKDAYKFAAD [BRDT_Y335],0.572
9,KKIMGYSIRTI [IDS_Y490_I485K],1.2
10,FADIAYSFRHG [PAH_Y166_N167S_YF],1.15
11,GRVLGYGAFGK [FLT4_Y853],0.851
12,GLNKGYRMVVN [HINT1_Y94],0.503
13,SDVCMYRKNIF [SYNE2_Y570_YF],0.74
14,AERKLYSGAQT [ZAP70_Y178],0.635
15,GENTMYAQVFN [LY9_Y603],10.1
16,QKDTFYGLRSL [IGSF10_Y126],0.488
17,SVSNNYIQTLG [CTNND1_Y174],0.803

row,Sequence,SH2 binding enrichment
1,QRVLLYVQRET [GRHL3_Y518_R520Q],1.52
2,EFLQKYKGFKI [SYNE1_Y6953_YF],0.732
3,PIAPVYAPSMV [ACAT1_Y331_A333P],0.718
4,NDLMEYAKQHG [ASS1_Y163],0.621
5,FMKEPYIQSRF [HIPK4_Y175_V171M_YF],0.687
6,IQSAKYDMAED [TTC21B_Y1213],0.679
7,KLSHLYQDHMQ [WNT5A_Y86_C83S],0.772
8,FPPDGYSRHFE [CTNND1_Y213_YF],0.738
9,AELVPYFMEHH [PTPN11_Y80_Q79P_YF],0.787
10,EYFDGYWGYSV [ITGA2B_Y265],0.578
11,FLNSSYINIST [IL23R_Y178_T175N_YF],1.69
12,WIPIQYPIISE [NOG_Y222],1.35
13,FDKPVYQKTTE [LDLR_Y828_N825K],0.557
14,TRSFDYTEGGD [FGF7_Y58_M59T_YF],0.494
15,SASRSYSRSRS [SRRM4_Y549],0.451
16,LGNFNYEQRGA [API5_Y497],0.487

# Target: c-Src SH2
# Experiment: as above
row,Sequence,SH2 binding enrichment
1,GGDAVYTNGTI [RFX2_Y82_A86T],0.434
2,PPKFFDTRKLL [CYBB_Y41_Y41D],0.92
3,TRVMEYISRLD [CLTCL1_Y1043],0.655
4,VTQEQYELYCE [CBL_Y368],0.625
5,PSAELYSYALP [PDGFRB_Y716_N718Y],3.46
6,TLKDVCDDGKY [RPS6KA3_Y483_Y483C],0.594
7,TVHCDYLNISH [TAF1L_Y1385_P1389S],0.567
8,EYKDAYKFAAD [BRDT_Y335],0.864
9,KKIMGYSIRTI [IDS_Y490_I485K],1.32
10,FADIAYSFRHG [PAH_Y166_N167S_YF],0.673
11,GRVLGYGAFGK [FLT4_Y853],0.556
12,GLNKGYRMVVN [HINT1_Y94],0.424
13,SDVCMYRKNIF [SYNE2_Y570_YF],0.554
14,AERKLYSGAQT [ZAP70_Y178],0.548
15,GENTMYAQVFN [LY9_Y603],1.84
16,QKDTFYGLRSL [IGSF10_Y126],0.439
17,SVSNNYIQTLG [CTNND1_Y174],0.638

row,Sequence,SH2 binding enrichment
1,QRVLLYVQRET [GRHL3_Y518_R520Q],1.03
2,EFLQKYKGFKI [SYNE1_Y6953_YF],0.346
3,PIAPVYAPSMV [ACAT1_Y331_A333P],0.621
4,NDLMEYAKQHG [ASS1_Y163],0.381
5,FMKEPYIQSRF [HIPK4_Y175_V171M_YF],0.57
6,IQSAKYDMAED [TTC21B_Y1213],1.3
7,KLSHLYQDHMQ [WNT5A_Y86_C83S],0.573
8,FPPDGYSRHFE [CTNND1_Y213_YF],0.424
9,AELVPYFMEHH [PTPN11_Y80_Q79P_YF],0.607
10,EYFDGYWGYSV [ITGA2B_Y265],1.94
11,FLNSSYINIST [IL23R_Y178_T175N_YF],4.35
12,WIPIQYPIISE [NOG_Y222],0.807
13,FDKPVYQKTTE [LDLR_Y828_N825K],0.563
14,TRSFDYTEGGD [FGF7_Y58_M59T_YF],0.513
15,SASRSYSRSRS [SRRM4_Y549],0.424
16,LGNFNYEQRGA [API5_Y497],0.462

# Target: Grb2 SH2 (UniProt P62993)
# Experiment: as above
# Sequence of Grb2 SH2 (P62993 whole entry, looked up): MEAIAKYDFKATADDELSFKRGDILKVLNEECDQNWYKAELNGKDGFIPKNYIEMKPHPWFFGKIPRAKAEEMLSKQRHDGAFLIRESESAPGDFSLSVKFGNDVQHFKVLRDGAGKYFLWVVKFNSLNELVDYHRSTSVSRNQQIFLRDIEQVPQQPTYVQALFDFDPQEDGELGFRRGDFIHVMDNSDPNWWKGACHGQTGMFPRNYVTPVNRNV
row,Sequence,SH2 binding enrichment
1,GGDAVYTNGTI [RFX2_Y82_A86T],0.91
2,PPKFFDTRKLL [CYBB_Y41_Y41D],1.54
3,TRVMEYISRLD [CLTCL1_Y1043],1.03
4,VTQEQYELYCE [CBL_Y368],1.04
5,PSAELYSYALP [PDGFRB_Y716_N718Y],0.966
6,TLKDVCDDGKY [RPS6KA3_Y483_Y483C],1.05
7,TVHCDYLNISH [TAF1L_Y1385_P1389S],1.17
8,EYKDAYKFAAD [BRDT_Y335],0.861
9,KKIMGYSIRTI [IDS_Y490_I485K],1.67
10,FADIAYSFRHG [PAH_Y166_N167S_YF],0.749
11,GRVLGYGAFGK [FLT4_Y853],1.28
12,GLNKGYRMVVN [HINT1_Y94],0.665
13,SDVCMYRKNIF [SYNE2_Y570_YF],0.794
14,AERKLYSGAQT [ZAP70_Y178],0.967
15,GENTMYAQVFN [LY9_Y603],0.751
16,QKDTFYGLRSL [IGSF10_Y126],0.952
17,SVSNNYIQTLG [CTNND1_Y174],0.846

row,Sequence,SH2 binding enrichment
1,QRVLLYVQRET [GRHL3_Y518_R520Q],1.66
2,EFLQKYKGFKI [SYNE1_Y6953_YF],0.95
3,PIAPVYAPSMV [ACAT1_Y331_A333P],0.785
4,NDLMEYAKQHG [ASS1_Y163],0.724
5,FMKEPYIQSRF [HIPK4_Y175_V171M_YF],0.964
6,IQSAKYDMAED [TTC21B_Y1213],0.823
7,KLSHLYQDHMQ [WNT5A_Y86_C83S],0.832
8,FPPDGYSRHFE [CTNND1_Y213_YF],0.818
9,AELVPYFMEHH [PTPN11_Y80_Q79P_YF],0.876
10,EYFDGYWGYSV [ITGA2B_Y265],0.999
11,FLNSSYINIST [IL23R_Y178_T175N_YF],25
12,WIPIQYPIISE [NOG_Y222],1.14
13,FDKPVYQKTTE [LDLR_Y828_N825K],0.811
14,TRSFDYTEGGD [FGF7_Y58_M59T_YF],0.87
15,SASRSYSRSRS [SRRM4_Y549],0.622
16,LGNFNYEQRGA [API5_Y497],0.87
